Assay results published in PMC9158119 (2022).

Molecular target: SARS-CoV-2 original strain spike receptor-binding domain (S-RBD) (SARS-CoV-2, UniProt P0DTC2 320-537)
Experiment: SPR

B1: Nb-007 (VHH)
VHH: QLQLVESGGGLVQAGGSMRLSCAASISFSSFPMGWHRQAPGKQRELVAKTGIGGTAYDDSVKGRFTISRDNTKNTVYLQMNSLKVEDTAVYYCWGWRMNDYWGQGTQVTVSS
Q: B1 was tested. Which koff did it give?
A: 0.00103 s⁻¹
